Experiment: soluble on expression in E. coli; label from the status in PepcDB or PDB records

| Sequence | soluble on expression in E. coli |
| --- | --- |
| MKIGIIGAGLGGLLSGAILSKEHSITIYEKLPFVGGRFTNIPYKGFQLTTGALHMIPHGNEGYLAQTLRRAGSNVKIVNSEPDGYFRINGKNHEYKDIFGLVSAKDKLKALKLAASLKLGKIDKNMPFGEFLEDIPLALDVGNSFSGWALSLNAYDTPMSEIIEISKLYHKFGGPGIPVGGCKGVIDSLVEIINKNGGKIYTSHAIEKIEVEENNVFLDSEQFDIVISNASPKLTEKMSNIKFIEKEPVPSKGIKINVASKLSLVDGASVIFTTDCERINGLNQPSNVDRSLAKEDYNLIMLHATQIKNNTKEEISLALNDIESLFGGKDYEVISIQSYGNGWPVNHASNGTDLNPIVKDNLLLVGDGVKGVGGIEVEGVAMSVIAVLNHIEKLKK | soluble |
| MGYRNTGSPPPPQIGGLYGDRNPNPYGTVNLGGGSPYPGGLEEYNIRPAAPFSGLVGGSRSGYYGSTVGMRRGAVVPPMSSRKTKIPQTEYPPDYASNDLMNSFNGATNSAIPSLRELATYASRYGPAYLRERFGSHDSQLERMLYGGSGPQIPSRGGGIPIDYNMNIASNHWNRGIGSPMGIMSRDVDSYQHDDAAKANKKTTTGSPSTTSTRKPRKARKPTKKTVAAAPSSSSNTSTTAKPAKTVKTSEKSA | not soluble |
| SLVSAQRAIIDPEGKVLINKVNFIDGGLKAPDEVVRKMVRMGTNIIGEPVCGLYPARLIALTSGYSARIPYTIDLDFWMQLLRLGKLWMIDEPLCAFRISNLSWSSRIGEMRHKQFLAFMEEVAADELFQINDLDLFIGRFNSAVQSMTSLMGFKLFAGSAAEKRVIAVQ | not soluble |
| MGSDKIHHHHHHMAAFTTTDGLRLFYEDEGTGQPLLCLAGLTRCSRDFEFLRPHVTDLRLIRLDYRGRGQSDYDPDYRNYNVLREAHDVIELLDHLGLDRVTVLGTSRGGMIAMALAASHPDRLAGVILNDVGPVIEPAGIARIMDYVGKKPVSKTHDQAALALKQAMEPQFPGVPLSVWRKQAEIQYAASDQGLALRYDDGLHKALLDQAATGAIPDLWLFFEALRDIPTAVLRGANSDILGAGTVAEMHRRHPGLISAEVPDRGHVPFLDEPQSLDLIRRILETA | not soluble |
| MVMRYSLKQLAVFDAVATTGSVSQAAELLSLTQSATSMSLSQLEKMLGRSLFERHGKRMALTHWGVWLRPKAKKLIHDAQQIELGFYDQHLISGEISLGASQTAAEHLVPNLISNIDNDFPEIRISLGVKNTSGIIEGVLDYKYELGIIEGRCDDSRIHQEVFCTDHLIIVAAAHHPFAKHEKVSLAQLEQAKWVLREHGAGTRTIFDSAIHGKIPDLDVWREYEYVPVLRTLVANGQYLSCLPYLDVVKYIERGELVALNVPELNMERTLSFIWRSSMDQNPISDCIRREGIRMIKNHNVIR | not soluble |
| MSLAEVSDLAKAIRMEKNLVKEYRDTIGGYFRRFHPEHFVLSRDEFAVEGRKITIESVLAYAFLRADLDFVSAQARKVDPEDMKGSDDAPVNNDEVFGHPSTPSGHGIGGPARFKGGSTASVALISTPTPAPFWHPAAQSTLLCAHVGDSRILLCDTATGLAQPLTSDHHPSSPTESRRLRRYAPAGSMVSGDSFGEERIAGLANSRAFGDMKSKRIGVSAEPELTRVEMGPAQYSFLVLMTDGISGTLSDQEIVDVVKEARTPEDGARNIVKYATEVSNDGDNATCQVVRLGGWERRSEGEGHHHHHH | not soluble |
| MSEKLQKVLARAGHGSRREIESIIEAGRVSVDGKIAKLGDRVEVTPGLKIRIDGHLISVRESAEQICRVLAYYKPEGELCTRNDPEGRPTVFDRLPKLRGARWIAVGRLDVNTCGLLLFTTDGELANRLMHPSREVEREYAVRVFGQVDDAKLRDLSRGVQLEDGPAAFKTIKFSGGEGINQWYNVTLTEGRNREVRRLWEAVGVQVSRLIRVRYGDIPLPKGLPRGGWTELDLAQTNYLRELVELPPETSSKVAVEKDRRRMKANQIRRAVKRHSQVSGGRRSGGRNNNGLEHHHHHH | not soluble |
| MGSDKIHHHHHHMAEKTFINRLQLTDFRNYGSASLRLDGRHVVLTGNNGSGKTNLMEAVSFLSPGRGLRRAVLSDVARAGAASGFSIFASLEGMAGDVELGTGSEVLDETAVRRLRINGASVRSVDELTDHLRVLWLTPAMDGLFTGSSSERRRFLDRLVLSIDPQHGRRASDFERAMRSRNKLLSEGRFDASWLAGIEQQMAALGIAMALARQEMMRLLAALIEQRREPETFPGADLMLSGFMDEHAGTAAIDLEDTYRDSLAGSRGRDAAAGRTLEGPHRSDLLVRHREKDMEAERCSTGEQKALLIGLILAHAELVATMTGFAPILLLDEIAAHLDEGRRAALFDRIDVLGGQAFMTGTDAQMFASLGDRAQFVTVDDGHLSL | not soluble |
| QTEVQKLTNAKAIITYLAEKFPLCFVLEGEAKPLKIGLFQDLAEALQDDERVSKTQLRQALRQYTSNWRYLYGCREGAVRVDLQGNPAGVLDAEHVAHAAQQLAEAKARFAEKRKQKLQLKKHNKKSIRVNLRIKTLKKRV | not soluble |
| MSLTSEDFLIKSKGYLDIQTGEIIKADLLIRNGKIAEIGKINTKDATVISIPDLILIPGLMDSHVHIVGNDSKGEESIADSSHMGTVWGVVNAEKTLMAGFTTVRNVGAANYADVSVRDAIERGVINGPTMLVSGPALGITGGHCDHNLLPPEFNYSSEGVVDSPWEARKMVRKNRKYGADLIKFCATGGVMSRNTDVNAKQFTLEEMKAIVDEAHNHGMKVAAHAHGLIGIKAAIKAGVDSVEHASFIDDETIDMAIKNNTVLSMDIFVSDYILGEGAKAGIREESLNKERLVGKKQRENFMNAHRRGAIITFGTDAGIFDHGDNAKQFAYMVEWGMTPLEAIQASTIKTATLFGIENIGQIKEGFDADIVGVIENPLANIRTLEEVAFVMKEGKVYKREGHHHHHH | soluble |
| AEPDQAPELNEAQREAVDTIGALSAFQPVLLHGVTGSGKTEVYLHAAARVLQAGRQVLLMVPEINLTPQLEGALRARLEALVGPQGVAILHSGLADGERVQAWARAQRGQARLLLGTRMSIFAPLPELGLIVVDEEHDPSYKQQEGLRYSARDLAIWRARDLDIPVVLGSATP | not soluble |
| MNPVLKSSKLVIFDLDGTLYEGTDHFDYYANHLKQNVPQSQQLDFWRDYTAMKDGHHPVQIGKGYDVKRDYILTIDPMTISVQSVQTWDGSYVPAEEWETLYSDPVSFDFETIIAVGDGWWYPFVTAKHYGVEDCYASYVATKEYMVTDEFELTPLPGLREGLIELKATKEIVLVTNSDREDVQRLLHELHLHDVFNHIITSAKKPTRTTDIFKEVVHQYEVDMSQVVSVGDNFMNEIAQALTLGMQGIYIHPQRASEVAHDHLTVIRSVVELFKNLEHHHHHH | soluble |
| MSFTEDQEKIALEILSKDKHEFYEILKVDRKATDSEIKKAYRKLAIKLHPDKNSHPKAGEAFKVINRAFEVLSNEEKRSIYDRIGRDPDDRQMPSRGAASGFRGSAGGSPMGGGFEDMFFNSRFGGQRAGPPEDIFDFLFNAGGSPFGASPFGPSASTFSFGGPGGFRVYTNNRGGSPFMRQQPRSRQQQQQAEENAVNSQLKN | not soluble |
| MDTLDELLPREKMLRSGIASLSDVELLALFLRTGTPGKDVMTLAKEILQHFGSLYGLLSADFAQFRGVNGIGLAKFAQLKGIAELARRYYSVRMNEESALLSPEMTREFLQSQLTGEEREIFLVIFLDAQHRVLQHSRLFSGTLNHVEVHPREIVREAIKLNASAVILAHNHPSGCAEPSKADKLITERVIKCCQFMDIRVLDHLIIGRGEYVSFAERGWI | not soluble |
| MNFKLNNTLSNEINTLIIGIPEHLNQLERISFNHIDITESLERLKHQHIIGSKVGKIYTTAFDVQDQTYRLITVGLGNLKTRSYQDMLKIWGHLFQYIKSEHIEDTYLLMDSFISKYDQLSDVLMACGIQSERATYEFDHYKSSKKAPFKTNLNLISESLIELDFIHEGISIGQSINLARDFSNMPPNVLTPQTFAEDIVNHFKNTKVKVDVKDYDTLVSEGFGLLQAVGKGSKHKPRLVTITYNGKDKDEAPIALVGKGITYDSGGYSIKTKNGMATMKFDMCGAANVVGIIEAASRLQLPVNIVGVLACAENMINEASMKPDDVFTALSGETVEVMNTDAEGRLVLADAVFYANQYQPSVIMDFATLTGAAIVALGDDKAAAFESNSKVILNDILQISSEVDEMVFELPITATERASIKHSDIADLVNHTNGQGKALFAASFVTHFSGQTPHIHFDIAGPATTNKASYNGPKGPTGFMIPTIVQWLKQQ | not soluble |
| MALKLKLKMPSSSASNSPQPPPPESHSPEQPKLPKLKIKAPSKTPVSSTPDSSMALKRPQEEQSTGENPKKLKLSLSKTKENGRPKGLPRVRIKPTRIPGEGYDSEAPDLEDDPLIEQGIIIRFLNDSNLDFVHNAVDSGDLTGLNVKWVTKEKAIVNVNSILYSARLIDLPTVTEIFKTVDRKNVFKTLDICQILLVLHVVDPAKLNIDTDFEVPEEFLFNHPFYKYVKNNEIKKKRMVLKDGLLQPFQDVYRRFRPTKVDHRVILDIESKVDELIKLDNEADESHFELLDSKTAQQSRFGTSATPSAVNSPVAMRMEGPEVEPGRFSNVQDHENEEDDEEEDEEDYDDDDLQDDDMELHLEQELEKVLDGELSESEVTIPTSMAGILTNDVGNGISIMTNGEQSEDIDGDEQDDEEEEEEEEEDGDDEEEEEEEEEEENEEGDSESGKQHVKLLEEEIFELEKAVAHHQKNLSTASSKMLRMKFQNTYTSLKASLDSKKRDLAKLLDEQEQQQEQKQPKTTVDEKSQEAEHSVEAEAEIEAQVEADAEDGDEDEDIDQGDDMNQENNNNNGDSDIDEDNADDLDDLF | not soluble |
| MHRSFGNLEFFRFQLSNQCPALQNIELEVPMHIERLDISEFGVEINRTSYAFQVKTDEEIDQTFDVDEFGMIDYDLVVDQNPDTILLDNRDPSNMHLELSYELQLLQNEYDRIEGLNGNDGIEDIEGLAKAREALEKRKTRYQFKYLKLMAREMGIKSQISIAREPLDQHIRFSINSPDRVPLYEEHLAYNKKIHEAQRSLLEKLFVGRPTICVKSLFIDSCFIVCIPKNMQFKVKHLSLSCNNFDEDLNAIRPLLHVSSFPLESIEVYGKWDSLDPILKTCGVLYFPGGCKIEKLLKLQNFHRKVHVNIFDALKQLPPSVKSWLENRQEIGTEYTFDISNEDQIILFLDEMKESNADRIVDEAELHVKLRMDNSTELYISYDPARDNVGRMKMKFQVQ | not soluble |
| MGSDKIHHHHHHMSNRIKNIHYGTQRQQLKNLTKKEYQALREMCFLAKNLYNVGTYNVRQHYFNQGEHLNYEANYHVCKENENYKLLNSNIAQQILKEVDSSFRSFFGLIKLAKEGKYDFRGIKSPKYLDKEGFFSIIIGQIRIKEDGILNVPMSPAFKKLYGKVSIKVPQNILEKKIKEIRIIPKHKARFFEIQYCYEIPKSEEVSNQKNALAIDLGLENLCTCVTNLGDSFIIDGKRLKSVNQWANKQNDKIEALKLKKNITAITRKQFKVWNKRNNQVKDYVNKTCFYIIDYCVKNNIGNLIVGYNAKLEKSDNMERKIYRNFIRIPFGEIKGKLEYLCKIKNINFIRQEESYTSKSDFFADDFLPDINVDNVKKYDFKGERITRGQYKSSVGIIINADVNASLNILKKSQVVNLSNLQNNPQILKQPQRVRIS | not soluble |
| MISVNDFRTGLTIAVDNGLWQVLDFQHVKPGKGAAFVRSKLRNLRTGSVQEKTFRAGEKVEKAHIENRRMQYLYASGEAHVFMDNGTYEQIELGEKQIERELKFLKENMEVSIMTYQGEVLGVELPNTVELQVTETEPGIKGDTASNVTKPATLETGLVVQVPIFINEGEMLIINTGEGKYVSRA | soluble |

From the DeepSol protein solubility set
